According to patent US20060026702A1, “Phosphoinositide 3-kinase mediated inhibition of GPCRs” (DUKE UNIVERSITY, priority 2002, published 2006):

How the values were obtained:
Type in all cases: cell-based
[1] = system: β2AR; assay: β2AR sequestration in HEK-293 cells by 125I-Cyanopindolol binding; conditions: 1 μM isoproterenol, 0-30 min; wortmannin 100 nM 15 min before, or co-transfected ΔPI3Kγ
Protocol: Determination of β2AR Sequestration in HEK-293 Cells by ^125I-Cyanopindolol (CYP) Binding—β2AR sequestration was performed as previously described. Briefly, HEK-293 cells were plated at a density of 2.5×10^6 cells/dish and transfected the following day with plasmids containing either the β2AR (150-250 ng), β2AR (250 ng) and HEAT domain (4 μg), PI3Kγ (4.0 μg) or ΔPI3Kγ (4.0 μg) cDNAs. Twelve hours after transfection cells were split into six well Falcon plates at a density of 750,000 cells/well. […] To determine the amount of internalized receptor, 100 μl aliquots of whole cells were added to 150 μl of binding buffer (75 mM Tris-HCl, 10 mM MgCl2, 5 mM EDTA (pH 7.5)). Total binding was determined in the presence of 175 pM ^125I-CYP alone, the number of internalized receptors were determined by using 175 pM ^125I-CYP plus 100 nM CGP12177, and non-specific binding was determined using 175 pM ^125I-CYP plus 1 μM propranolol. Sequestration was calculated as the ratio of (specific receptor binding of ^125I-CYP in the presence of CGP12177)/(specific receptor binding of ^125I-CYP in the absence of CGP12177).

[2] = system: β-arrestin2-GFP; assay: β-arrestin2-GFP recruitment to the membrane by confocal microscopy; conditions: isoproterenol; co-expressed mutant protein
Protocol: Confocal Microscopy—Confocal microscopy was performed as previously described. […] Cells were split into 35 mm^2 dishes with glass bottoms for observation using a Zeiss LSM-510 confocal microscope. […] For analyses of the HEAT domain, HEK 293 cells were transfected with the plasmids containing cDNAs encoding either the β2AR-YFP (2 μg) or β2AR-YFP (2 μg) and HEAT domain (4 μg). Cells were plated onto glass bottom dishes for observation in the confocal microscope. […] Cells were permeablized with 0.1% Triton X-100 in phosphate-buffered saline for 20 min, incubated in 1% BSA in phosphate-buffered saline for 1 hr. Cells were washed with 1× phosphate-buffered saline and incubated with anti-HA or anti-FLAG monoclonal antibody (1:250) with 1% BSA in 1× phosphate-buffered saline for 1 hr. Cells were washed and incubated with goat anti-mouse IgG conjugated with Texas Red (1:500) (Molecular Probes) for 1 hr. Samples were visualized using single sequential line excitation filters at 488 and 568 nm and emission filter sets at 505-550 nm for GFP detection and 585 for Texas Red detection.
To exclude these possibilities cells were co-transfected with plasmids containing FLAG β2AR, β-arrestin2-GFP and either PI3Kγ or ΔPI3Kγ cDNAs, and were monitored for the recruitment of β-arrestin2-GFP using confocal microscopy. […] Marked redistribution of β-arrestin2-GFP to the membrane occurred within 2.5 minutes. […]

[3] = target: T1, β2AR (Homo sapiens, UniProt P07550); assay: Agonist-induced β2AR phosphorylation, 32P metabolic labeling; conditions: 10 μM isoproterenol 5 min; ΔPI3Kγ co-transfected
T1 construct: expressed in transfected cells; host or cells: HEK-293
Protocol: β2AR Phosphorylation—β2AR phosphorylation was performed in intact cells as previously described. Cells were transfected with plasmids containing the FLAG β2AR (2 μg) and vector DNA (2.5 μg), the FLAG β2AR (2 μg) and PI3Kγ (2.5 μg), or the β2AR (2 μg) and ΔPI3Kγ (2.5 μg). 24 hr after transfection, cells were washed and metabolically labeled for 1 hr with medium containing 100 μCi of ^32P/ml. […] Following centrifugation at 38000×g for 20 min at 4° C., the supernatants were processed for immunoprecipitation of the FLAG-β2AR as described above. Phosphorylated receptors were resolved by 10% SDS-polyacrylamide gel electrophoresis and dried gels subjected to autoradiography.
To directly test the effect of API3Kγ expression on receptor phosphorylation, ^32P; metabolic labeling was performed in HEK-293 cells transfected with plasmids containing FLAG β2AR and either the PI3Kγ or ΔPI3Kγ cDNAs. […] Thus, the effect of overexpression of ΔPI3Kγ on β2AR sequestration is not related to processes that are involved with β2AR phosphorylation or β-arrestin2 recruitment. In FIG. 6D, Agonist (ISO, 5 min) promoted β2AR phosphorylation in transfected cells after ^32Pi metabolic labeling for 1 hour prior to stimulation (upper panel). Lower panel, immunoblot for HA showing equal levels of expression of HA-PI3Kγ and HA-ΔPIβKγ. + represents HA-PI3Kγ control.

recruitment of β-arrestin2-GFP to the receptor/membrane after agonist [2]: prompt recruitment | level of agonist-induced receptor phosphorylation [3]: not affected
B1: ΔPI3Kγ: HA tagged PI3 Kp110γ mutant, Δ942-981, deletion in ATP binding site; catalytically inactive (protein)
chain: MELENYKQPVVLREDNCRRRRRMKPRSAASLSSMELIPIEFVLPTSQRKCKSPETALLHVAGHGNVEQMKAQVWLRALETSVAADFYHRLGPHHFLLLYQKKGQWYEIYDKYQVVQTLDCLRYWKATHRSPGQIHLVQRHPPSEESQAFQRQLTALIGYDVTDVSNVHDDELEFTRRGLVTPRMAEVASRDPKLYAMHPWVTSKPLPEYLWKKIANNCIFIVIHRSTTSQTIKVSPDDTPGAILQSFFTKMAKKKSLMDIPESQSEQDFVLRVCGRDEYLVGETPIKNFQWVRHCLKNGEEIHVVLDTPPDPALDEVRKEEWPLVDDCTGVTGYHEQLTIHGKDHESVFTVSLWDCDRKFRVKIRGIDIPVLPRNTDLTVFVEANIQHGQQVLCQRRTSPKPFTEEVLWNVWLEFSIKIKDLPKGALLNLQIYCGKAPALSSKASAESPSSESKGKVRLLYYVNLLLIDHRFLLRRGEYVLHMWQISGKGEDQGSFNADKLTSATNPDKENSMSISILLDNYCHPIALPKHQPTPDPEGDRVRAEMPNQLRKQLEAIIATDPLNPLTAEDKELLWHFRYESLKHPKAYPKLFSSVKWGQQEIVAKTYQLLARREVWDQSALDVGLTMQLLDCNFSDENVRAIAVQKLESLEDDDVLHYLLQLVQAVKFEPYHDSALARFLLKRGLRNKRIGHFLFWFLRSEIAQSRHYQQRFAVILEAYLRGCGTAMLHDFTQQVQVIEMLQKVTLDIKSLSAEKYDVSSQVISQLKQKLENLQNSQLPESFRVPYDPGLKAGALAIEKCKVMASKKKPLWLEFKCADPTALSNETIGIIFKHGDDLRQDMLILQILRIMESIWETESLDLCLLPYGCISTGDKIGMIEIVKDATTIAKIQQSTVGNTGAFKDEVLNHWLKEKSPTEEKFQAAVERFVYSCAGYCVATFVLGIGDRVPFVLTPDFLFVMGTSGKKTSPHFQKFQDICVKAYLALRHHTNLLIIILFSMMLMTGMPQLTSKEDIEYIRDALTVGKNEEDAKKYFLDQIEVCRDKGWTVQFNWFLHLVLGIKQGEKHSAYPYDVPDYA
rate of β2AR sequestration [1]: significant attenuation
